Reference: a protein production outcome set (Wang et al. 2014)

Experiment: label from the status in PepcDB records
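Also: failed if final PepcDB status was selected cloned or expressed and not failed if soluble or beyond.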

Sequence	protein production
MQITIKVLKGKDCTIEVAPTSTILEVKHQIEAELQISATNQKLLLLGRPLNNEQTIASYPNIKEGTKLNLVVIKP	failed
MQITIKVLKGKDCTIEVAPTSTILEVKHQIEAELQISATNQKLLLLGRPLNNEQTIASYPNIKEGTKLNLVVIKPCLRDSILRGFRKHYSEPLAERMTNEFMADFERKINEQSLDDLERLADSIVNRAAT	failed
MQIVKKEKFILKEYTFENGRTIPVQMGYETYGTLNRERSNVILICHYFSATSHAAGKYTAHDEESGWWDGLIGPGKAIDTNQYFVICTDNLCNVQVKNPHVITTGPKSINPKTGDEYAMDFPVFTFLDVARMQCELIKDMGIARLHAVMGPSAGGMIAQQWAVHYPHMVERMIGVITNPQNPIITSVNVAQNAIEAIRLDPSWKGGKYGEEQPMKGLQLANRMMFMNAFDEHFYETTYPRNSIEVEPYEKVSSLTSFEKEINKLTYRSIELVDANSWMYTAKAVLLHDIAHGFSSLEEALSNVEANVLMIPCKQDLLQPSRYNYKMVDLLQKQGKYAEVYEIESINGHMAGVFDIHLFEKKVYEFLNRKVSSFV	not failed
MQKCSLITVISLSVLMLAGCTTTYTMTTRTGEIIETQGKPEVDTATGMTKYADAYGYHRVIKTSEIVQTTEGASKLDWLEHHHHHH	failed
MQKINIDRHATAQINMLANKLMLKSSTAYTQKFGIGMTEWRIISVLSSASDCSVQKISDILGLDKAAVSRTVKKLEEKKYIEVNGHSEDKRTYAINLTEMGQELYEVASDFAIEREKQLLEEFEEAEKDQLFILLKKLRNKVDQM	not failed
MQKIPGYENTNSEVPDKKYWLYGLMIVFFALAFRLFELGERVLHHDESIHASFTLKLLEHGEYSYDPAYHGPFLFHSTAAVFHFLGITDTTSRLVPVLFGVATILLLFLLKKELGKNGVLWSMFLLAFSPSMVYFSRFFRNDMIIIFCTLAAVTGAFRYLDSIHSLKRYPYLVLAASSLAVAVSSKENAYIILAVFGAYAGLGFLYWICSDWKKENMGLKETLRSKTSALLPYLPEIILSGALSVFIIMFFYSSAFRYDVSLFSIVERAFNHWMEMHSIERIGGPFYYYIPILLRYEIPVVLFGAAGFFYFLFNRVRNKGQNYSFFLFLCYWALTSLLLYSYIQEKVPWLVVHIVLPFGLLAGAFLGEVFSKKNKDGQPKKPDYPGKIRALLTVILVLTLLVFISQCISVNYYRSMEDEELITYTQASPDIRILMEKIEGFNESPDTLRIYVIDQYQLYWPLPWYLRDYERAAYSSKPPSSSKYDAIIVPISCDMYRELSEEEYSSYNFTLRPGRDFTLYYNNKLEQQ	failed
MQKKNFWQIYFGKDPFSKAEFIKAWIGWWVIAIVLLGVLSICTSLNLRGIGIALGFGFCQIHARYLTFVGWNKFIGVLGVFPVTNIILFIVLLFTKKK	failed
MQKKSIYVAYTGGTIGMQRSDNGYIPVSGHLQRQLALMPEFHRPEMPDFTIHEYAPLIDSSDMTPEDWQHIANDIQQNYDLYDGFVILHGTDTMAFTASALSFMLENLAKPVIITGSQIPLAELRSDGQTNLLNALYLAANHPVNEVSLFFNNQLFRGNRTTKAHADGFDAFASPNLSVLLEAGIHIRRQSSVVSPTSNGPLIVHRITPQPIGVVTIYPGISGAVVRNFLLQPVKALILRSYGVGNAPQKAELLDELKNASDRGIVVVNLTQCISGSVNMGGYATGNALAQAGVISGFDMTVEAALTKLHYLLSQSLSPNEIRQLMQQNLRGELTDTQ	not failed
MQKKTQKLTVYVIVGLLIISLVGTSFMFLGDMRPTVGKNYQDQINSLKQALEANPQDTQTRLALADTYYDWGMQTLSQDMAEENLATTTSILQQAVTEYQEVLKTEKNVNILVDMATAAFYTSQNELADQTFQEALQEDPNFYNGLYNYGVFLYSQGDYGKAIEQWEKALALENISTDDKERLERNIKLAQDGIVQQFQQPENGDSSDANAEAK	failed
MQKLVEQVWDYTKHAKFYSYRPNYAPKTIDMLISLVGKKDIKVADIGAGTGNLSIMLLERGCKVVSVEPNDAMREIGIERTKDQKIDWVRATGLNSTLQNSEFDWVTFGSSFNVMDRNEALEEAHRLLKSEGYFSCMWNHRDLNDPVQKIAEDTIVEFVPNYTRGTRREDQRPIIESRKDLFDNIVYIEEDFYFHQSIENYINAWKSVKNPYWDLETDEGNELFNKISNKISQRLPKEFSIKYTTRCWSAKKI	failed
MQLHELVNTLGQDLQRRYGEKVHKLTLHGGFSCPNRDGTIGRGGCTFCNVASFADEEVQIKSIHEQLKDRAGEIHRAKKYLAYFQAYTSTYAEVQVLKNMYEEALKAADIVGLCVGTRPDCVPDSVLDLLSDYVNQGYEIWLELGLQTANNDTLKRINRGHDFECYAEITQRARALGIKVCTHLIVGLPKETRDDNIETLQKVLAVGTDGIKLHGLHIVEGSTMAKAWRAGRLEAPGLEEYVAIASEMIRMTPADVVFHRVSSAARRPTLLSPLWCENRWLAMTEIGRALNKDGAQGSLIGKPFIYTKPELKADCSINN	failed
MQLITFLHEFIKHPKHTGAIAPSSKILAKKMVDVIDFNKAKCIVELGPGTGVFTKEIMKRKKKETIFLLIEINEVFFKELKRKFKDEQNVIVVHGSAENIKKYMGEHNIECIDYVLSGLPFTSLPEEVSKRILNNAMEAIHENGEFITFQYSLVKKGFIQHFFPEITLEKVWLNFPPAYVFSCKKELRRAYA	failed
MQLNQTNTPFNEEQLALINQLLPMLTPEQQHWLSGYLLNPATTSVSDNKTDIQENEAGITETETSTSTDQSVSEPVSASTEPLDVHVLYGTETGNAEEIAETFETKLKSQNLNVHLWDMDDFPRDSLPEVEHLFIICSTQGVGEPPINALDLYDYLHGDDAPQLDQVNFAVLALGDQDFPDFCQAGKDFDYILGQLGANRVADRVDCDFDYEETAEQWITNMLELLTQASSNTNEETPSVENEDVTIEEPQAPYSKSNPFQAEVLKNTILTQPEASREVRHLEISLEGYREAYEPGDSLVVIPQNDPVLVNQLIDALNWDAETPIQMNDSDSMRSLKEALTHDFEIAKLTPVLMKNAAELLGNPMLNANIQKSEWVQNYIYGKDVIDLIRDFTPVALEPNMLPQLLRKLPPREYSIASSNKVNPNSVHITVRVVKYEAHRRERFGVCSVQLADRTSVGDKLPVYLKKNPNFKFPYDTETPVIMIGAGTGIAPYRAYLQERAYLNLKGEQWLIFGNQNYHHDFLYKDDLEQWLEEGVLSKLDLAFSRETENKIYVQHRIEENSAEFYKWIQAGATIYLCGNKDEMASGVHESLIKVLIKEGNLDETEAEAYLTEMIKNQRYQRDVY	failed
MQLQLICEDPSQQSHLDELAARWQLSHTDESDFALVLTAERLELRKVDEPKLGAIFVDLIGGAVGHRRKFGGGKGQAIAKAAGLNKGATPTVLDGTAGLGRDAFVLASLGCKVQMVERHPVVAALLDDGLARAKQDPEIGTWVSERMSLIHASSHDALDQLAQDREFVKPDVVYLDPMYPHPENKKKSALVKKEMRVFQSLVGADLDADGLLEPALALATKRVVVKRPDYANWLNEQKPSMAIETKKNRFDVYVKASMALEHHHHHH	not failed
MQLSGRSSSGLGRAGQLLRRPEVLAFLPALSLLAYWLGGERALVFVALGLPLFYATVGAFRPAAPSVTPDGLALRPQVIASLDRVLQDRESTGRTTACLVLQFDGMDKLLDRHGRATQSEVLARCCDRLCSTLREGDTVARLEGGGLAVALHPVRRLDLQSVVLLAGRLQTAIAAPISVEGTRIHVTCSIGFCLAERTPAPTGRALLDAAQMAADEASRNGPGAVRAYALGMSRNRADRDADRGLLETALDTGQFTGWFQPQIRTEDGAIGGFEVLSRWQHPERGLLLPQDFLPAIERAGLSERLGEVMLFQALTALRHWDRAGLCVPCVAVNFSATDLRNPRLVDRLKWELDRFELTPARLSVEILETVVAEGASDVVVHNIAGLSACGFGVDLDDFGTGHASITTIRRFALRRLKIDRSFVTRADSDAAQRTMLAAIISMARQLGLETLAEGVETPGELATLTALGCGYLQGYAIARPMPLSDATAWLENRRVRLPLAARCATPGS	failed
MQLSSLTAVSPVDGRYAGKTQALRPIFSEYGLIRFRVMVEVRWLQRLAAHPQITEVPAFSAQANAILNTLAEDFSVEHAERVKEIERTTNHDVKAVEYLLKEQAAKLPELENVSEFIHFACTSEDINNLSHALMLREGRDTVMLPLMRQIADAIRELAIRFADVPMLSRTHGQPASPTTLGKELANVVYRLERQITQIAAVPLLGKINGAVGNYNAHLSAYADIDWEANARAFIEDELGLGFNPYTTQIEPHDYIAELFDAVARFNTILIDFDRDIWGYISLGYFKQRTIAGEIGSSTMPHKVNPIDFENSEGNLGIANALFQHLASKLPVSRWQRDLTDSTVLRNLGVGFAHSVIAYEASLKGISKLELNEQRIAADLDACWEVLAEPIQTVMRRYNIENPYEKLKELTRGKGIGPEALQTFIDGLDMPAQAKAELKKLTPANYIGNAAAQAKRI	not failed
MQMIKPPVQRHSHRRHRLLRSLGHQFSFGFFALCEKQRECKCDMATVMTTNLYNVARHSPHPIIFVCGSWSSLIESLIESAKEEEESMRRRS	failed
MQMNNHIRLRKAEGKWVIRTDSAVLGETLNAIELTEGSRDPVIYFPREDVAMVMFDKSEKVTACPLKGEASYYSIVGASGTLKDAAWSYESPKEGLEAIAGYLAFAPDCTKVGQY	not failed
MQNAESWFKKYWHLSVLVIAALISVKLRILNPWNSVFTWTVRLGGNDPWYYYRLIENTIHNFPHRIWFDPFTYYPYGSYTHFGPFLVYLGSIAGIIFSATSGESLRAVLAFIPAIGGVLAILPVYLLTREVFDKRAAVIAAFLIAIVPGQFLQRSILGFNDHHIWEAFWQVSALGTFLLAYNRWKGHDLSHNLTARQMAYPVIAGITIGLYVLSWGAGFIIAPIILAFMFFAFVLAGFVNADRKNLSLVAVVTFAVSALIYLPFAFNYPGFSTIFYSPFQLLVLLGSAVIAAAFYQIEKWNDVGFFERVGLGRKGMPLAVIVLTALIMGLFFVISPDFARNLLSVVRVVQPKGGALTIAEVYPFFFTHNGEFTLTNAVLHFGALFFFGMAGILYSAYRFLKRRSFPEMALLIWAIAMFIALWGQNRFAYYFAAVSAVYSALALSVVFDKLHLYRALENAIGARNKLSYFRVAFALLIALAAIYPTYILADAQSSYAGGPNKQWYDALTWMRENTPDGEKYDEYYLQLYPTPQSNKEPFSYPFETYGVISWWDYGHWIEAVAHRMPIANPFQAGIGNKYNNVPGASSFFTAENESYAEFVAEKLNVKYVVSDIEMETGKYYAMAVWAEGDLPLAEKYYGGYFYYSPTGTFGYANSQWDIPLNSIIIPLRIPSELYYSTMEAKLHLFDGSGLSHYRMIYESDYPAEWKSYSSQVNLNNESQVLQTALYEAVMRARYGVSPTMGTQEVLYKYAYTQLYEKKMGIPVKIAPSGYVKIFERVKGAVVTGKVSANVTEVSVNATIKTNQNRTFEYWQTVEVKNGTYTVVLPYSHNSDYPVKPITPYHIKAGNVVKEITIYESQVQNGEIIQLDL	failed
